The record followed here is publication PMC7294632, “Structure-guided protein engineering increases enzymatic activities of the SGNH family esterases” (Biotechnology for Biofuels, 2020).

Substrate in data set [1]: CCCCCC(=O)Oc1ccc([N+](=O)[O-])cc1
The data set is described as follows: purified protein. The following applies: 100 mM Tris-HCl pH 7.5, 20 °C, substrate 0.05-2 mM. Type of data set: biochemical, Croceicoccus marinus.

Substrate in data set [2]: CCCC(=O)Oc1ccc([N+](=O)[O-])cc1
The data set is described as follows: purified protein. In kind it is biochemical, Altericroceibacterium indicum. Particulars: 100 mM Tris-HCl pH 7.5, 40 °C, substrate 0.05-2 mM.

B1: CrmE10 (Croceicoccus marinus) (protein)
chain: MADGEAAGQQADAVMPTGPAIDVLAFGDSLFAGYRLDRDESYPARLQAALRERGLNVNVTNAGVSGDTTAAGLQRIDFVLDSMAGEPDLVLLELGANDMLRGLPAEEARRNLDTILQRLDQRDIPVMVYGMRAAPNLGGDYGRSFDSIFPDLADKYDAELVPFFIEPLIFDRSLVQQDQLHPTAQGVDAMVEQTVEQVEDRIDDL
notes: expressed in E. coli BL21 (DE3) from pSMT3, N-terminal His-Sumo tag removed with ULP1; monomer in solution by MALS, domain-swapped dimer in crystal
Regarding B1, in “purified protein [1]”, the Km was determined as 160 µM and the kcat amounted to 29.4 s⁻¹.

B2: AlinE4 (Altericroceibacterium indicum) (protein)
chain: SMGESRVILAFGDSLFAGYGLDKGESYPAKLETALRSHGINARIINAGVSGDTTAAGLQRIKFVLDSQPDKPELAIVELGGNDLLRGLSPAEARQNLSGILEELQRRKIPILLMGMRAPPNLGAKYQREFDGIYPYLAEKYDAKLVPFFLEAVADRPDLIQKDHVHPTARGVEELVSATSNAVAKALPAKK
notes: as for B1
As for B2, in the data set “purified protein [2]”, the Michaelis constant (Km) was 100 µM and the turnover number (kcat) was found to be 25.8 s⁻¹.

The Km is the substrate concentration at which the rate is half of its maximum. Broadly, the kcat is the maximal rate divided by the concentration of active sites.
